± gives the half width of the 95% confidence interval.
What was measured:
[1] = folding stability dG unfold (combined trypsin and chymotrypsin); higher = more stable
Summary of the method: (§1)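 K50 was inferred by Bayesian fitting of sequencing counts obtained after protease digestion of designed mini-proteins. Unfolding free energy was derived by comparison with a sequence-predicted unfolded-state K50 and a shared folded-state K50, for each protease or both combined. The mini-proteins were under 80 residues, had no cysteine, were carried in a PA-tagged cDNA display construct, and were kept only if AlphaFold2 dimer inter-PAE exceeded 15.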

[2] = folding stability dG unfold from chymotrypsin proteolysis; higher = more stable
Summary of the method: as §1

[3] = folding stability dG unfold from trypsin proteolysis; higher = more stable
Summary of the method: as §1

Sequence | folding stability dG unfold [1] [kcal/mol] | folding stability dG unfold [2] [kcal/mol] | folding stability dG unfold [3] [kcal/mol]
SAGGSAGGSAGGMEISEKLREYIEKLGKKVSEEEALAIAEEKAKELKEKGIEDVTIVLPVSAGGSAGGSAGG [r7_512_JUSTAS] | 0.399 ± 0.17 | 0.374 ± 0.072 | -0.0343 ± 0.1
SAGGSAGGSAGGMIEKIEVTKLPDGTYKVTITIPLPNGPVITKTITIPPSETVEDAIAKLSAGGSAGGSAGG [r7_54_JUSTAS] | 2.31 ± 0.046 | 2.194 ± 0.012 | 2.54 ± 0.04
SAGGSAGGSAGGMIKIKLGDKWVDVAEVKEYPDSIIVYNPKTNTKITISKKNPEDPNILISAGGSAGGSAGG [r7_391_JUSTAS] | 1.01 ± 0.21 | 1.47 ± 0.081 | 0.463 ± 0.09
SAGGSAGGSAGGMINIEGSSFEIVQPDGKPIGSESTGSAEELAKKLPSSYSVLPKGVPPSAGGSAGGSAGGS [r10_310_JUSTAS] | 2.25 ± 0.27 | 2.72 ± 0.11 | 1.67 ± 0.21
SAGGSAGGSAGGMIVETLGDSPETVTLVKLPNKPIIRTYDPVTGTWTIYDPDTNKIYEISAGGSAGGSAGGS [r10_434_JUSTAS] | 1.26 ± 0.098 | 0.872 ± 0.14 | 1.39 ± 0.052
SAGGSAGGSAGGMKIKNAEIVEVKEENGKKTLLVKNKETGKYYKITIDDNKITIEEVKVPSAGGSAGGSAGG [r7_940_TrROS_Hall] | 3.87 ± 0.52 | 4.13 ± 0.13 | 2.21 ± 0.32
SAGGSAGGSAGGMKIKTITGDPSTGVYTITFPDGKVETIPMTQEEVEALAKENPGIEITLSAGGSAGGSAGG [r7_175_JUSTAS] | 2.46 ± 0.097 | 2.81 ± 0.049 | 0.899 ± 0.035
SAGGSAGGSAGGMKITKVEVFERPDGYLVVKMEIELTNENGEKVKLELVFVFKPGEVIESAGGSAGGSAGGS [r10_1183_TrROS_Hall] | 4.72 ± 0.31 | 4.96 ± 0.2 | 3 ± 0.15
SAGGSAGGSAGGMKLVTLPDGKTYPFTSLEEFKEALLKETGKPVDLKNPVIYPVPPGLSSAGGSAGGSAGGS [r10_62_JUSTAS] | 0.99 ± 0.22 | 0.959 ± 0.084 | 0.401 ± 0.14
SAGGSAGGSAGGMKTIVFTTLSPEEAQALADELKAKGVDVEVTYEPVPVTPRPLPLNRLSAGGSAGGSAGGS [r10_361_JUSTAS] | 2.57 ± 0.097 | 3.06 ± 0.063 | 2.04 ± 0.059
SAGGSAGGSAGGMKVIKIEDVEKVKAEAKKNGIKVTYKKENDGEIIAYIEKIPKSIKNKSAGGSAGGSAGGS [r10_218_JUSTAS] | -0.00327 ± 0.23 | 0.449 ± 0.14 | -0.832 ± 0.34
SAGGSAGGSAGGMKVIPFESLEEAREYIKANPDENVLLEFPDALLELTKPDDIKKIEKKPSAGGSAGGSAGG [r7_532_JUSTAS] | 0.28 ± 0.084 | 0.36 ± 0.12 | -0.0919 ± 0.12
SAGGSAGGSAGGMKVLVIFEDNKIPRVVSEEELKKIPLPFKIIPLGPDPEEAKKILEKSSAGGSAGGSAGGS [r10_419_TrMRF] | 0.434 ± 0.27 | 0.34 ± 0.39 | 0.616 ± 0.13
SAGGSAGGSAGGMLFHFEIKDPNSDKEYEVLVEKPPSGKVLVTILKDNKEEVKVLPLELFSAGGSAGGSAGG [r11_952_JUSTAS] | -0.29 ± 0.31 | -0.393 ± 0.42 | 0.109 ± 0.17
SAGGSAGGSAGGMLILVEVNGEKRLLEADSLEDALAKLPPGATVTRVEIFEVEEVELPESAGGSAGGSAGGS [r10_13_TrROS_Hall] | 2.15 ± 0.068 | 2 ± 0.059 | 2.36 ± 0.067
SAGGSAGGSAGGMLLSPEEAEKLAAELKAKENVTIKVTPEPSPGKVKVEIIKTKGPKLVSAGGSAGGSAGGS [r10_402_JUSTAS] | 0.418 ± 0.16 | 0.54 ± 0.061 | -0.0172 ± 0.17
SAGGSAGGSAGGMLTAVFTTPGNVRRLVPFSSEEEARALAEAEGVEVEFLDPAEAARLLSAGGSAGGSAGGS [r10_66_JUSTAS] | -0.476 ± 0.14 | -0.497 ± 0.25 | -0.569 ± 0.17
SAGGSAGGSAGGMLVRIPRGDKGFVLEIETDGVRTVEEFDGTEEEIREYAEKNGFEILESAGGSAGGSAGGS [r10_506_JUSTAS] | 0.892 ± 0.071 | 0.883 ± 0.051 | 0.771 ± 0.017
SAGGSAGGSAGGMMKITIEVDGKKIEITLPPGAELKFDKEKKEIYIRNKKTNEILKLKIKSAGGSAGGSAGG [r7_7_TrROS_Hall] | 2.21 ± 0.11 | 2.35 ± 0.041 | 1.9 ± 0.048
SAGGSAGGSAGGMMRIRIKIYNVETGEWKEIEIEVPESVKEITLEIELPEGWRIVEIEVESAGGSAGGSAGG [r7_687_TrROS_Hall] | 5.32 ± 0.14 | 5.22 ± 0.087 | 5.39 ± 0.52

Reference: the supplement of paper PMC12764529
